From paper PMC6639382, “Structural mechanism of synergistic activation of Aurora kinase B/C by phosphorylated INCENP” (Nature Communications, 2019)

T1: Aurora kinase C kinase domain (truncation not stated for this experiment), phosphorylated (human)
T1 sequence (Q9UQB9 whole entry, looked up): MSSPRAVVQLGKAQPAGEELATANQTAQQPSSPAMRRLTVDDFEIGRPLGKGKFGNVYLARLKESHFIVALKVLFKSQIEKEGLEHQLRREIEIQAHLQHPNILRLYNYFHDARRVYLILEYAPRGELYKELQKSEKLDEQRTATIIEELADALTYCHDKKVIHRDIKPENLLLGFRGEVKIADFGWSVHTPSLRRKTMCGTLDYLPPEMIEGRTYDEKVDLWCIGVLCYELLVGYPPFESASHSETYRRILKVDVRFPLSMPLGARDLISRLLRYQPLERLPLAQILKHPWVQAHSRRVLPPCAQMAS

T2: Aurora kinase A (AURKA) (Homo sapiens, UniProt O14965)
T2 construct: residues 122–403
T2 sequence (O14965 122-403): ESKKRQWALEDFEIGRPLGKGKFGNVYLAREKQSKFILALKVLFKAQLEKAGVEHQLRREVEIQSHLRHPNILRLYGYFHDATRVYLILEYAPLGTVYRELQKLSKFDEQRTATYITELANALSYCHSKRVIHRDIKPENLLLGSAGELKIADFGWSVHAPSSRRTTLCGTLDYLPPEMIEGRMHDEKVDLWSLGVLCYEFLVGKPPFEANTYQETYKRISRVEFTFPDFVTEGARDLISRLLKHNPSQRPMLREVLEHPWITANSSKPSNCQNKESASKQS

T3: Aurora kinase C kinase domain (truncation not stated for this experiment), phosphorylated
T3 chain: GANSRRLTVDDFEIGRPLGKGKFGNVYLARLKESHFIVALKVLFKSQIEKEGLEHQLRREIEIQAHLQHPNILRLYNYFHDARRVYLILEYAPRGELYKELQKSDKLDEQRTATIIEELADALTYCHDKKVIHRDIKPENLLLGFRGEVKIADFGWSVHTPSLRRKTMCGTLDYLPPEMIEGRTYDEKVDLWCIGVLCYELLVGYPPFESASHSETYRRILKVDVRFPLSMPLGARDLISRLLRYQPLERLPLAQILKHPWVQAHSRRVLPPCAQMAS


Experiments:
[1] = target: T1, Aurora kinase C kinase domain (truncation not stated for this experiment), phosphorylated (human)
Aurora kinase A (AURKA) = target: T2, Aurora kinase A (AURKA); assay: crystal structure ([…] Å) and isothermal titration calorimetry; assay type: binding
Aurora kinase C (AURKC) = target: T4, Aurora kinase C (AURKC) (Homo sapiens, UniProt Q9UQB9); assay: co-crystal structure ([…] Å); assay type: binding
T4 construct: residues 36–305 of AURKC isoform 1; with INCENP (residues 835–903, phosphorylated on Ser893 and Ser894)

Aurora kinase B (AURKB) = target: T5, Aurora kinase B (AURKB) (Homo sapiens, UniProt Q96GD4); assay: isothermal titration calorimetry; BLI kinetics (slow off-rate); assay type: binding
T5 construct: kinase domain co-expressed with INCENP residues 835–903; with INCENP (residues 835–903)

[2] = target: T1, Aurora kinase C kinase domain (truncation not stated for this experiment), phosphorylated (human); assay: native MS; native nano-ESI ion mobility-mass spectrometry of the co-purified complexes, 250 mM ammonium acetate, ca. 10 µM, gentle ionisation conditions
[3] = target: T3, Aurora kinase C kinase domain …; assay: native mass spectrometry (native ESI-MS); details: chain shown with the change; concentration of ca. 10 µM; same gentle ionisation conditions; parent: 0

Sequence of INCENP IN-box (residues 835–903), phosphorylated on the TSS motif (Q9NQS7 other isoform, or with tags, fused parts or gaps): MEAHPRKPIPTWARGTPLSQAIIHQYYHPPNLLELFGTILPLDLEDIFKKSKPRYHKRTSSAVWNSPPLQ
T4 sequence (Q9NQS7 835-903 partner, one chain of several): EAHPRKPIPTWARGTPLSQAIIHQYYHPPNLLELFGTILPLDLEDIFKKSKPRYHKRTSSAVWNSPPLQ
T5 sequence (Q96GD4 77-327 limits assumed): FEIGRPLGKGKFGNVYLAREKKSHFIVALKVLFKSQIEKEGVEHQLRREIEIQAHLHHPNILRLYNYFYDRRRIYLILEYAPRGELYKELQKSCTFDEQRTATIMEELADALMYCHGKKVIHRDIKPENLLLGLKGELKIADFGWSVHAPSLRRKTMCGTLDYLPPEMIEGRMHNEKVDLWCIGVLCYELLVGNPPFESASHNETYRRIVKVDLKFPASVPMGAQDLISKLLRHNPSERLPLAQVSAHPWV
T5 sequence (Q9NQS7 835-903 partner): as the sequence (Q9NQS7 835-903 partner, one chain of several) above

Row | Kcat of the AURKC:INCENP complex on a peptide substrate [1] | Km(peptide) of the AURKC:INCENP complex [1] [µM] | Molecule | further results
1 | 38800 s⁻¹ | 83 | INCENP IN-box (residues 835–903) S894A (from UniProt Q9NQS7-1 835-903) (domain or fragment) | –
2 | 46300 | 83 | INCENP IN-box (residues 835–903) S893A (from UniProt Q9NQS7-1 835-903) (domain or fragment) | –
3 | – | – | COc1ccc(NC(=O)Nc2ccc3c(c2)C(=O)N([C@@H](C)CO)C[C@H](C)[C@H](CN(C)Cc2ccc4c(c2)OCO4)O3)cc1 [BRD-7880] | Kd (Aurora kinase A (AURKA)): 341 nM; co-crystal structure (1.75 Å) (Aurora kinase C (AURKC)): The co-crystal structure with AURKC:INCENP reveals a completely ordered BRD-7880 molecule (Fig. 5a) which binds in the ATP-binding site; Kd (Aurora kinase B (AURKB)): 16 nM
4 | 48800 | 18.7 | INCENP IN-box (residues 835–903), phosphorylated on the TSS motif (from UniProt Q9NQS7-1 835-903) (domain or fragment) | % complex formed [2]: 100%
5 | 41800 | 25.1 | INCENP IN-box (residues 835–903) W897A (from UniProt Q9NQS7-1 835-903) (domain or fragment) | –
6 | – | – | INCENP IN-box (residues 835–903), phosphorylated on the TSS motif, Q9NQS7-1 S893A; S894A; W897A (protein) MEAHPRKPIPTWARGTPLSQAIIHQYYHPPNLLELFGTILPLDLEDIFKKSKPRYHKRTAAAVANSPPLQ | other: % unbound AURKC (% unbound AURKC) [3]: 40
